Where a SMILES comes first, the peptide text is derived from it. The star is where a group is joined. Cbz = O=C(OCc1ccccc1)*
Experiments:
[1] = test system: HIF-1α protein in MIA PaCa-2 cells; test: HIF-1α protein level and stability in CHC knockdown cells (Western blot); type: cell-based, human; conditions: MG132 10 μM, DFX 100 μM
Description: (§1) Cells were extracted with RIPA buffer and the supernatants were immunoprecipitated using either anti-CHC antibody, Pa65-2, mAb X-22 (Affinity), or anti-HIF-1α antibody (BD), then analyzed by immunoblotting. The signals were developed using enhanced chemiluminescence reagents (ECL) (Thermo).
(§2) For hypoxia experiments, MIA PaCa-2 cells were grown in a Ruskinn Hypoxic Chamber (APM-50D, 18 Astec, Japan) and treated with either 1% O2, 5% CO2 for 18 h, or given DFX, deferoxamine (100 μM, Sigma) treatment for 5 or 16 h. For proteasome inhibitor treatment, MG132 (10 μM, Sigma) was added to culture medium then incubated 5 to 17 h.

[2] = test system: pancreatic cancer; conditions: cited from earlier work
[3] = test system: MIA PaCa-2 cells; test: Matrigel invasion assay; type: cell-based, human
Description: RT-CES (ACEA), a microelectronic cell sensor system, was used to count tire number of living cells. Cells (5×10^3) were seeded into each sensor-containing well in microliter plates. The electronic sensors provided a continuous (every 6 h), quantitative measurement of the cell index in each well. Cell growth was measured for 72 h, and cell indices for each well were recorded at all time points. Cell invasion was assayed in 24-well Biocoat Matrigel invasion chambers (8 μm; Millipore) according to the manufacturer's directions. Cells were counted under a microscope in five predetermined fields. Assays were performed in triplicate.

[4] = test system: MIA PaCa-2 cells; test: Apoptosis assay (FLICA caspase activity); type: cell-based, human; conditions: 24 h
Description: Apoptosis of cultured cells was verified through the detection of caspase activity using sulforhodamine FLICA apoptosis detection kit (Immunochemistry Technologies). Cells in 96-well culture plates were treated with Pa65-2 or NM-IgG for 24 h. After incubating with FLICA, cells was read at ex/era of 550/595 nm with fluorescence plate reader (Molecular Devices).

[5] = test system: MIA PaCa-2 cells; test: Binding of Pa65-2 to cells by ELISA, flow cytometry and immunofluorescence; type: cell-based, human; conditions: flow cytometry, immunofluorescent analyses
Description: Cells were cultured in 96-well polystyrene plates for 3 days and then fixed with 2% paraformaldehyde. After blocking and washing twice with PBS/0.1 % Tween 20 (PBST0.1), the hybridoma supernatants were added and the plates were incubated for 2 h at room temperature. This was followed by washing and incubating with horseradish peroxidase (HRP)-conjugated goat anti-mouse IgG for 1 h. The colorimetric reaction was developed with the substrate ortho-phenylene-diamine (OPD) according to the manufacturer's instructions (Sigma), and was stopped by adding 3 N HCl. Absorbance at 490 nm was measured using a microplate reader. Each control and test group was tested in triplicate. Each experiment was repeated at least three times. To analyse binding, cells (1×10^5 cells per tube) were prepared, washed, centrifuged, and resuspended in 100 μl of PBS/1% FCS containing Pa65-2 or NM-IgG. Cells were incubated at 4° C. for 1 h, washed twice with PBS/1% FCS and stained with […] isothiocyanate (FITC)-labeled goat anti-mouse IgG at 4° C. for 20 min. The stained cells were washed twice and fluorescence signals were measured using a FACScan (BD). […]
(§3) 3×10^3 cells were cultured into each well of 96-well polystyrene plates for 3 days and fixed with 2% paraformaldehyde. […] Absorbance at 490 nm was measured using a microplate reader. […]

[6] = test system: HUVECs; test: Inhibition of HUVEC VEGF internalization; type: cell-based, human; conditions: 50 μg/ml, VEGF-A 40 ng/ml
Description: HUVEC were washed with serum-free medium, incubated in 1% BSA in serum-free medium at 37° C., and pretreated with Pa65-2 or NM-IgG (50 μg/ml) at 37° C. They were then incubated with or without VEGF-A (40 ng/ml) at 37° C. or 4° C. After cells were washed, fixed and made permeable. The permeable cells were incubated with anti VEGF-A antibody (A-20, Santa Cruz). Finally, cells were stained using Rhodamine-conjugated secondary antibodies.

[7] = test system: MIA PaCa-2-derived pancreatic cancer xenografts; test: Antitumor efficacy of Pa65-2 in pancreatic cancer xenografts; type: in vivo, NOD/SCID mice
Description: All animal experiments were performed as per the guidelines of the National Laboratory Animal Center. The protocol was approved by the Committee on the Ethics of Animal Experiments of Academia Sinica (Taipei). A xenograft model was generated by injecting NOD/SCID mice with MIA PaCa-2 cells transduced with either CHC shRNA or control vector. The two kinds of transduced cells were injected into different lateral sides of the hind limbs of eight animals at the same time. For analysis of antitumor efficacy of Pa65-2, NOD/SCID mice bearing MIA PaCa-2-derived pancreatic cancer xenografts (˜50 mm^3) were intravenously injected in the tail vein with Pa65-2, or gemcitabine, or NM-IgG, or equivalent
volumes of PBS. Tumors were measured by calipers every three days, and mice were observed routinely for weight loss as a symptom of drug toxicity. The tumor volumes were calculated as length×(width)^2×0.52. Animals were treated following the guidelines established by Academia Sinica (Taipei).
(§4) CD31 staining and TUNEL assays were carried out as described previously. The slides were then visualized under a fluorescent microscope and analyzed with MetaMorph software.

[8] = target: T1, human clathrin heavy chain (CHC) (Homo sapiens, UniProt Q00610); test: Target identification: immunoaffinity, LC-MS/MS, immunoprecipitation and Western blot; type: binding; conditions: immunoprecipitation and Western blot in parallel with mAb X-22; CHC knockdown
T1 construct: endogenous in cells; host or cells: MIA PaCa-2 (human pancreatic adenocarcinoma cells)
Description: MIA PaCa-2 cell lysates were purified by protein G sepharose (GE), coupled with Pa65-2 and eluted with elution buffer. The eluates were separated by SDS-PAGE. The band of interest was cut from the gel, reduced with dithioerythreitol (DTE) alkylated with iodoacetamide (IAA) and digested with trypsin for 16 h at 37° C. The digested peptides were analyzed by LC-MS/MS sequencing in the Core Facility for Proteomics and Structural Biology Research at Academia Sinica (Taipei).
as §1

[9] = test system: pancreatic adenocarcinoma cell lines MIA PaCa-2 and AsPC-1; test: ELISA and Western blot binding screen on pancreatic adenocarcinoma cell lines; type: cell-based, human; conditions: MIA PaCa-2, AsPC-1 versus normal HUVEC, NNM, CCD-1112Sk
Description: as §1
(§5) Cells were cultured in 96-well polystyrene plates for 3 days and then fixed with 2% paraformaldehyde. After blocking and washing twice with PBS/0.1 % Tween 20 (PBST0.1), the hybridoma supernatants were added and the plates were incubated for 2 h at room temperature. This was followed by washing and incubating with horseradish peroxidase (HRP)-conjugated goat anti-mouse IgG for 1 h. The colorimetric reaction was developed with the substrate ortho-phenylene-diamine (OPD) according to the manufacturer's instructions (Sigma), and was stopped by adding 3 N HCl. Absorbance at 490 nm was measured using a microplate reader. Each control and test group was tested in triplicate. Each experiment was repeated at least three times. […] The stained cells were washed twice and fluorescence signals were measured using a FACScan (BD).
as §3

[10] = test system: blood vessels of human pancreatic cancer tissues; test: Immunofluorescent co-staining of Pa65-2 and UEA-1 in pancreatic cancer tissue
Description: (§6) The human pancreatic cancer gene expression arrays (Origene) were analyzed by an ABI9600 thermocycler (Applied Biosystems). Tissue arrays were purchased from Pantomics Inc. Tissue sections were stained with antibodies specific for CHC (Pa65-2), VEGF (GeneTex), HIF-1α (Millipore), NM-IgG, and UEA-1-FITC (Vector). Quantification of DAB intensity was by HistoQuest software (TissueGnostics). The protocol was approved by the institutional Review Board of Human Subjects Research Ethics Committee of Academia Sinica (Taipei).

[11] = test system: HIF-1α expression and VEGF secretion in MIA PaCa-2 cells; test: Western blot of HIF-1α expression and VEGF secretion under DFX hypoxia; type: cell-based, human; conditions: DFX 100 μM, 50 μg/ml, 48 h
Description: as §1, §2

[12] = test system: HUVECs; test: Apoptosis in HUVEC by TUNEL staining; type: cell-based, human
Description: as §4

[13] = test system: MIA PaCa-2 cells; test: MTT cell proliferation assay; type: cell-based, human; conditions: 50 μg/ml for 3 days
Description: Cells were cultured in 96-wells plates. To reduce cancer growth, the cells were culture in Dulbecco's modified Eagle's medium (DMEM) containing 50 μg/ml Pa65-2 or NM-IgG. After incubating for 0, 1, 2, 3 days, the cells were subjected to an MTT assay. The absorbance was determined with a microplate reader at 540 nm. Each assay was repeated for three times.

[14] = test system: MIA PaCa-2 cells; test: EGF and transferrin uptake (internalization) assay; type: cell-based, human; conditions: pretreated 50 μg/ml at 37° C.
Description: EGF and Tf uptake assays were carried out using a fluorescence-based approach, as previously described (26). Cells were washed with serum-free medium, incubated in 1% BSA in serum-free medium at 37° C., and pretreated with Pa65-2 or NM-IgG (50 μg/ml) at 37° C. They were then incubated with or without Alex 555-EGF (1 μg/ml, INVITROGEN™) or Alex 555-transferrin (50 μg/ml) at 37° C. or 4° C. The cells were imaged using a Leica TCS SP confocal microscope (Leica).

[15] = test system: MDAMB-231 (breast cancer), CL1-5 (lung cancer), SKOV3 (ovary cancer) and SAS (oral cancer); test: ELISA and Western blot binding on other cancer cell lines; type: cell-based, human; conditions: MDAMB-231, CL1-5, SKOV3, SAS
Description: as §1, §5, §3

[16] = test system: human pancreatic cancer tissue array; test: Immunohistochemistry of Pa65-2 on human pancreatic cancer tissue arrays; conditions: for Labeling Score: score 0-4
Description: as §6
We modified the “Quick Score” methods by reducing the original scales (Siegel et al. (2012) “Cancer statistics 2012” CA Cancer J Clin, 62, 10-29). Two indices were used in evaluating the staining results of tumors. Labeling Index (LI) indicates the number of tumor cells that were immunostained (or “positive cells”) as a proportion of the overall number of cells. A score on a scale of 0-2 was assigned; 0-10%=0, 11-49%=1, 50-100% =2. The second index is the Intensity Index (II), which measures the average intensity of the immunostaining. A score on a scale of 0-2 was assigned; no staining=0, weak staining=1, and strong staining=2. The scores from these two indices were added to give the tumor Labeling Score (LS), which ranges from 0-4.

T1 sequence (Q00610 whole entry): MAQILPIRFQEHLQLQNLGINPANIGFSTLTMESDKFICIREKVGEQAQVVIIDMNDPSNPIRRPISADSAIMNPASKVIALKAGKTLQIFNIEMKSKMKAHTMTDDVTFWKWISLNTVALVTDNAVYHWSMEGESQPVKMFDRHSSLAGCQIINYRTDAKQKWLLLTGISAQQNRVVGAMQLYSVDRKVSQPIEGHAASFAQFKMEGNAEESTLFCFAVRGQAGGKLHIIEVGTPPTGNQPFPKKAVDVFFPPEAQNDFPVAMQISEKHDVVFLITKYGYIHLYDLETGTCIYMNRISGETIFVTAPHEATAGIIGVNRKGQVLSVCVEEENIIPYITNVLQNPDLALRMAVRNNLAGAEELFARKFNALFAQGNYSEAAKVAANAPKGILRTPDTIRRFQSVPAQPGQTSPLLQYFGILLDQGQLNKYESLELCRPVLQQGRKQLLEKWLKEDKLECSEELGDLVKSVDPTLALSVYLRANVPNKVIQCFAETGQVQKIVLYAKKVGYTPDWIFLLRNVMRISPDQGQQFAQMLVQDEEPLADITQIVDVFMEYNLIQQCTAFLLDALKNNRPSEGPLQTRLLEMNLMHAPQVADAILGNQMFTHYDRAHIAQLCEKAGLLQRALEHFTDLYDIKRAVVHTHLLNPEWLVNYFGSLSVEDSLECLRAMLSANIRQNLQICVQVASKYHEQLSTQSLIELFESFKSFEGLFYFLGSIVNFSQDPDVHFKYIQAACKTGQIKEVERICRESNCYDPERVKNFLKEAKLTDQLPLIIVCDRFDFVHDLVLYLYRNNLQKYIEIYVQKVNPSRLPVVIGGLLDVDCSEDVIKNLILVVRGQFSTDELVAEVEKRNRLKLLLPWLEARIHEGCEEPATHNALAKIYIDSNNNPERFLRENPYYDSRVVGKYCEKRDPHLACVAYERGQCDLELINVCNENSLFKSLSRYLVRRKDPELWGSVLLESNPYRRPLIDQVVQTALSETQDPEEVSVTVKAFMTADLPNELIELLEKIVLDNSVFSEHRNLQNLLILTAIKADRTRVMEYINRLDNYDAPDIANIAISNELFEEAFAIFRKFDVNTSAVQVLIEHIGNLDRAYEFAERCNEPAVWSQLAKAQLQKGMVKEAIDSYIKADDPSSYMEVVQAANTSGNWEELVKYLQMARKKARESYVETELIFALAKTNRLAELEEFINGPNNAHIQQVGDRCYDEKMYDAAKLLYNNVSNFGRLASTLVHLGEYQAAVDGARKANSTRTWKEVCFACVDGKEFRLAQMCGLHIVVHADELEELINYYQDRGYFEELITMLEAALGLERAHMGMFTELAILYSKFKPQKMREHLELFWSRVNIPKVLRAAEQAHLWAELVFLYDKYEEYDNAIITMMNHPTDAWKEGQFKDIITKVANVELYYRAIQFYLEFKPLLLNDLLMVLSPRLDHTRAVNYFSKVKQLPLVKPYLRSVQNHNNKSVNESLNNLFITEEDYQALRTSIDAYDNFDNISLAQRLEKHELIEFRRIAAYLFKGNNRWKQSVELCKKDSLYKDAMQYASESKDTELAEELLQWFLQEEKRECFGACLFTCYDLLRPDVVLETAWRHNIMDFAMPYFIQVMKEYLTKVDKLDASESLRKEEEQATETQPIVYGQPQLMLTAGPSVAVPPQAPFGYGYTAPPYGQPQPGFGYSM

CC(C)C[C@@H](C=O)NC(=O)[C@H](CC(C)C)NC(=O)[C@H](CC(C)C)NC(=O)OCc1ccccc1 [MG132] (Cbz-Leu-Leu-Leu-aldehyde)
decreased protein level of HIF-1α in CHC knockdown cells [1]: rescued

Nc1ccn([C@@H]2O[C@H](CO)[C@@H](O)C2(F)F)c(=O)n1 [gemcitabine]
effectiveness in treating pancreatic cancer ([2]; most commonly used medicine): only moderately effective

bevacizumab
improvement in overall survival of pancreatic cancer patients ([2]; clinical trial, in combination with small molecule drugs): no significant improvement

B1: Pa65-2: monoclonal antibody that recognizes human clathrin heavy chain (CHC); VH SEQ ID NO: 2, VL SEQ ID NO: 3 (antibody, listed as Homo sapiens, V domains shown)
VH: EVKLVESGGGLVKPGGSLNISCAASGFTFSNYVMSWVRQTPEKRLEWVATISSGDNYMYYPDSVKGRFTISSDNAKNTLFLQMSSLRSEDTALYYCARHFDNYEGNSMDYWGQGTSVTVSSAKTTPPSDYPLA
VL: DIVLTQSPATLSVTPGDSVSLSCRASQSIRSNLHWYQQKSHESPRLLIKYASQSISGIPSRFSGSGSGTDFILSINSVATEDFGVYFCQQSNSWPLTFGAGTKLELKRADAAPTVS
migration (FIG. 5C) [3]: inhibited | cell apoptosis [4]: induced cell apoptosis | recognition of MIA PaCa-2 cells [5]: specifically recognize MIA PaCa-2 cells | VEGF internalization [6]: suppressed VEGF internalization | average tumor volume smaller than the control groups ([7]; 10 mg/kg i.v. every three days, day 36, n=6, P<0.05): about 2 fold | blood vessels in tumor sections ([7]; CD31 staining, P<0.05): decreased | inhibitory effect on tumor growth compared with gemcitabine ([7]; Pa65-2 10 mg/kg versus gemcitabine 15 mg/kg, i.v.): equivalent effects | apoptotic cells in tumor sections ([7]; TUNEL, n=6, P<0.01): increased | specificity for CHC [8]: specifically recognized CHC | binding affinity to pancreatic cancer cell lines [9]: strong binding affinity | colocalization of Pa65-2 antigen with endothelial cell marker UEA-1 [10]: colocalized | hypoxia-induced HIF-1α expression [11]: suppressed | VEGF secretion ([11]; culture media): suppressed | apoptosis in HUVECs [12]: induced apoptosis | cancer cell proliferation [13]: inhibited | EGF uptake ([14]; Alex 555-EGF 1 μg/ml): blocked | transferrin uptake ([14]; Alex 555-transferrin 50 μg/ml): blocked | binding to other types of cancer cell lines [15]: can also bind | staining of pancreatic cancer tissues ([16]; 46 specimens, tissue array): positively stained | Labeling Score ([16]; Adenocarcinoma I, stage T2N0M0): 3 | Labeling Score ([16]; Adenocarcinoma I, stage T2N1M0): 2 | Labeling Score ([16]; Adenocarcinoma I, stage T3N0M0): 3 | Labeling Score ([16]; Adenocarcinoma I, stage T3N1M0): 3 | Labeling Score ([16]; Adenocarcinoma II, stage T2N0M0): 2 | Labeling Score ([16]; Adenocarcinoma II, stage T3N0M0): 3 | Labeling Score ([16]; Adenocarcinoma II, stage T3N1MX): 3 | Labeling Score ([16]; Adenocarcinoma II, stage T4N1M1): 4 | Labeling Score ([16]; Adenocarcinoma III, stage T3N0M0): 3 | Labeling Score ([16]; Adenocarcinoma III, stage T3N1MX): 3 | Labeling Score ([16]; Normal Pancreas): 0 | staining of normal pancreatic tissues ([16]; two normal pancreatic tissues, tissue array): two normal pancreatic tissues were not
